This data set in a line: soluble on expression in E. coli; label from the status in PepcDB or PDB records.
For the sequence “MPFRSNNPITRDELLSRFFPQFHPVTTFNSGLSGGSFLIEHQGQRFVVRQPHDPDAPQSAFLRQYRALSQLPASIAPKPHLYLRDWMVVDYLPGAVKTYLPDTNELAGLLYYLHQQPRFGWRITLLPLLELYWQQSDPARRTVGWLRMLKRLRKAREPRPLRLSPLHMDVHAGNLVHSASGLKLIDWEYAGDGDIALELAAVWVENTEQHRQLVNDYATRAKIYPAQLWRQVRRWFPWLLMLKGGWFEYRWRQTGDQQFIRLADDTWRQLLIKQ”, the “soluble on expression in E. coli” value was “not soluble”.

As for “MCTGFTIQTLNNQVLLGRTMDYDYPLDGSPAVTPRNYRWKSRTGTTGQTQYGFIGTGTDMEGFIYGDGVNEHGVAISTQYFRGYSSYGSTHKADAMNITQNEIVTWILVYTTSIEDMKQQASQIHVVAVYLNDIGEVPPLHYHVSDATGHTVEVSFKEGEVVIKDNPIGVLTNHPDLNWHYSNLRQYINISPYPATANLLEGVTIEPLGNEAGTFGLPGGFTSTERFVRMTFMKANIAQNNDKEMDLMNAFYLLDAVNIPIGIVRPHDADNHYTMYQTVINLTTRTLYIKYYGSNELVALKLTDDLINRKDMTIFKPEKHITIRKLNDNQ”, the “soluble on expression in E. coli” value is given as “not soluble”.

With “GSSIFDIYVVTADYLPLGAEQDAITLREGQYVEVLDAAHPLRWLVRTKPTKSSPSRQGWVSPAYLDRRLKL”, the “soluble on expression in E. coli” value is “soluble”.

For “MGSIWELDFYSRPILDENQKKVWEVVICESPLDIRTKTDSLFRYAQYCPSTEVNSAWLRTAIQEAISKAGKAPIKIRFFRRQMNNMIVKACEDAGIPALPSRRTLALNQWLKQRMEEVYPQEPGYQGVTTPSVRLDSPLPQRLPDALEGQQWVFVSLSAADLAEMPDWEIGFSEAFPLDFVQVSPETRIPGVLIFSPRALPIAGWMSGLELAFLRVDTSQGMRLVLETGATESWILANIKNPTTVQEARGFEEAKQKANGVHFIGVQSNPEAESFAGFWLLQELGVLEHHHHHH”, the “soluble on expression in E. coli” value is given as “not soluble”.

In the case of “MSLTLRDVAAEAGVSPMTASNALRGKPGVKESTRAKVIAAAKKLNYRINLTASMLKSGRSNIIHVIVNEFDSPFYSKLTQALSNEIVSRGLIPFIEQTQYSPDAAEHALSSNPFSGQLFDGEILHATGLGTNVPLSKLNGGRPFVLLDACEETPTVDAVNFPNEEAERAAMQHLIDRGCRNIAIVGHRFAPRADLAHAQNAFALRLRGACGALSDAGLPYDESMVFEAGDVANGIIAGHAIAERILAARSGHGGTEFDGACCANDFAAFGVIRGLADRGLRVPQDVKVIGFDGVTSGSYTTPALSTIQVDFMQLAKFSVDMLSERIDHGADEALPPRRAIIGYQLVDRESTAEGHHHHHH”, the “soluble on expression in E. coli” value was “soluble”.

Turning to “GPGMSSLSNSLPLMEDVQGIRKAQKADGTATVMAIGTAHPPHIFPQDTYADVYFRATNSEHKVELKKKFDHICKKTMIGKRYFNYDEEFLKKYPNITSYDEPSLNDRQDICVPGVPALGTEAAVKAIEEWGRPKSEITHLVFCTSCGVDMPSADFQCAKLLGLHANVNKYCIYMQGCYAGGTVMRYAKDLAENNRGARVLVVCAELTIMGLRAPNETHLDNAIGISLFGDGAAALIIGSDPIIGVEKPMFEIVCTKQTVIPNTEDVIHLHLRETGMMFYLSKGSPMTISNNVEACLIDVFKSVGITPPEDWNSLFWIPHPGGRAILDQVEAKLKLRPEKFRAARTVLWDYGNMVSASVGYILDEMRRKSAAKGLETYGEGLEWGVLLGFGPGITVETILLHSLPLM”, the “soluble on expression in E. coli” value is “soluble”.

For “MDELMFFRGMAPDPTSYDRVFKFLIFGGKSVGKKTLLRSFCTEGDNESIWTSLTVDDEKVLIEATVSQKWEEGMSKEHDAIALVFSTTDVYSFEYTLELYNEIQKSTERIPLVFIENKIDIVEDSQMDKGLVEGEMRKKHKRLYRVSALKEFNVMHPFAYLIEKLTRQKKDLNANESVSENSLRL”, the “soluble on expression in E. coli” value is reported as “not soluble”.

Consider “MGSDKIHHHHHHMPIHLIWGDDAAARDHAIETLIGDVVDQAWSSINLSRLDGADAGQASQALAEARTPPFGSGGRLVLLQRSPFCNACPSELANRFEDVLDLIPETSHLVLCNPNKPDGRLRTTKALQKLVKLKQASEKSFLLPAIWDGAGQQELVERTARDLGLQLEPEATAALVEAIGNDSTRLTAELQKLALHADIRQESATENQSPTLIKAENVAALIEGMATNALQVGDSLLAGHAGEAIARLDALLDAGEPALRIVATLTGQIRGWLWVSLLEQQGERDVNVIAKAAGIGNPKRIYVMRKQLQGRPPQRFLTLLSRLLEVEAALKRGAIPTDAFRDGLLSTP”, for which the “soluble on expression in E. coli” value was “not soluble”.

“MAICILHYTNAQLARDWSFQQMCNFWGGEQTYHARKDGFKSLEGDKCTFNFPKASDNQKSAQQYCEDNVPYHINNAEASEYKTTCEAEATLICKSGWVQMFGRCYKITKTMMTRDKAEKHCKNQQDQTSTIAFMHREALPFRWNDYFTRVSRIWMDASEVVTNDLIYDVEGGNVLLAFDGYKYNLPNVAIARVSKDETAMVLCEYTPPMTKSESNYLLRRYGEIYYPPLVTSEAVYIRTTSSRIRNEEDKLADHKYCTEVMKPVFRGGRAQSASPTQGLHMPTQMRGINKSAPFKQNPTIKGEAVPFPLDNAIWRKGEPNESCDAATWSSAVVLSRRENEGLEVMSDARYAPIYCEQIVKGLSYTKCPDGFVEYYRKNEGKTWCHKYVWDDTANYDNAEQKCQQLGAHLSSFTSDEEFQFLNDMIAKSEQLPNTDYIEVLLGARRRKRCNDLSIVGRGGFSSDKESECSRRRVFEWLHDVAENPPNFLDAYWPSPYEPNHALVDEECLVMMSGKTNGGMVMEQGN”: the “soluble on expression in E. coli” value is listed as “not soluble”.

On to “MGSDKIHHHHHHMAIGIVIASHGEFAAGIHQSGSMIFGDQEKVQVVTFMPSEGPDDLYAKFNDAIAAFDADDEILVLADLWSGSPFNQASRVMEENSDRKFAIITGLNLPMLIQAYTERMMDAAAGVEQVAANIIKEAKDGVKILPEKLQPQEEAPTTSTKKAAPQGAIPEGTVIGDGKLKINLARVDTRLLHGQVATNWTPASKADRIIVASDTVAKDELRKGLIKQAAPGGVKANVVPIKKLIEAAKDPRFGNTHALILFETPQEALEAIEGGVPITELNIGSMAHSTGKTMVNNVISMDKDDVATFEKLRDLGVKFDVRKVPNDSQKDLFELIEKAHVQ”, for which the “soluble on expression in E. coli” value is reported as “not soluble”.

For the sequence “FEQEGRDVALDYRWMPYKRISTNLKKALIASEDARFAGHGGFDWGGIQNAIRRNRNSGKVKAGGSTISQQLAKNLFLNESRSYIRKGEEAAITAMMEAVTDKDRIFELYLNSIEWHYGVFGAEAASRYFYQIPAAKLTKQQAAKLTARVPAPLYYADHPKSKRLRNKTNIVLKRMGSAELPESDTD”, the “soluble on expression in E. coli” value is “not soluble”.

As to “MADETDITHTKWLAYSKSLKIDLTYPGINGIGIIYNIQADQLDDYIEKQRVLRPNYAIHPSHNESEYWPITYVEPAAPNKKAIGLDMAFETNRYSSIKKARDTGVAQLTGPITLVQDAKKTPGFLFYTPFYKNGTKPESTEARRDAIDGVTYAPFIMKNLMQGTLAEKNRHVSIQIRDAGDLLFDDHDDESVLDADANPLFTKEQDISLYGRTWSFTIQSNLDFRDESAANQLEHHHHHH”, the “soluble on expression in E. coli” value is listed as “soluble”.

In the case of “MATPAFVKRITRSDAVLSLGVNFSKIYFKFVMWTGRYDRQAVPIPEPYILAMWHGRLIMAPMLQTKSKPLVALISGHRDGKIISRVGAAFGIQTAVGSSSKGGMRAAREMMRLGKSGHSLFVTPDGPRGPRMRINSEGVLDMARLTGLPILPVSVSLSRHKLLRSWDRLMLPGLFAKVAIRFGEPITVEAGSPTAEMAERLQAALTAAQNETDRIVGLQPVETALEHHHHHH”, the “soluble on expression in E. coli” value is “soluble”.

In the case of “MENIFLKRLEFKAFEEDSVFSKIEGLNKFNSLNFKKPITFFSGENGTGKSTLLEAIAVNWGFNPEGGSINFNFSTKDTHLDLHNYLTVGKSVKRATDGFFLRAESFYNVATYAENIDLDFSEYGDKSLHHQSHGESFLNLVNHRFRGNGLYLLDEPEAALSPQRQLALMISIKKLIDEGSQFIIVSHSPILLAMPDSQIISFDKDSPLEITYEESMPYEITSLFLNNKNRILSHLFAE”, the “soluble on expression in E. coli” value is given as “not soluble”.

“RENFPGVSWDSLPDELLLGIFSCLCLPELLKVSGVCKRWYRLASDESLWQTLDEFRVQHMDLSNSVIEVSTLHGILSQCSKLQNLSLEGLRLSDPIVNTLAKNSNLVRLNLSGCSGFSEFALQTLLSSCSRLDELNLSWCFDFTEKHVQVAVAHVSETITQLNLSGYRKNLQKSDLSTLVRRCPNLVHLDLSDSVMLKNDCFQEFFQLNYLQHLSLSRCYDIIPETLLELGEIPTLKTLQVFGIVPDGTLQLLKEALPHLQINCSHFTTIAR”: the “soluble on expression in E. coli” value was “soluble”.

“MLRALRGAADLLSTALYKNEMMMSRRYLSTPAPEPAKPSSEETTESTEPATSVEDAGEPMKEKRITQPYSSEALTKLKLDQYPLYVEREWWKTGKRMTFWASWRQLRDVKRREQIQEVGADRMRLKAIKFNTILPQAIRDEAAEKMQKARKYDHPRLILNMCQFTGRQRGKIKPYRLSRHLFRRFADRSALSGVQRAMW”: the “soluble on expression in E. coli” value is given as “not soluble”.

As to “MEKLLQWSIANSQGDKEAMARAGQPDPKLLQQLFGGGGPDDPTLMKESMAVIMNPEVDLETKLVAFDNFEMLIENLDNANNIENLKLWEPLLDVLVQTKDEELRAAALSIIGTAVQNNLDSQNNFMKYDNGLRSLIEIASDKTKPLDVRTKAFYALSNLIRNHKDISEKFFKLNGLDCIAPVLSDNTAKPKLKMRAIALLTAYLSSVKIDENIISVLRKDGVIESTIECLSDESNLNIIDRVLSFLSHLISSGIKFNEQELHKLNEGYKHIEPLKDRLNEDDYLAVKYVL”, the “soluble on expression in E. coli” value is listed as “soluble”.

With “MKLRHLPLIAAIGLFSTVTLAAGYTGPGATPTTTTVKAALEAADDTPVVLQGTIVKRIKGDIYEFRDATGSMKVEIDDEDFPPMEINDKTRVKLTGEVDRDLVGREIDVEFVEVIK”, the “soluble on expression in E. coli” value was “not soluble”.

On to “MSLNQSFTQFGDGYASTGTLNIGDVLDIMIWEAPPAVLFGGGLSSMGSGSAQQTKLPEQLVTARGTVSVPFVGDISVVGKTPGQVQEIIKGRLKKMANQPQVMVRLVQNNAANVSVIRAGNSVRMPLTAAGERVLDAVAAVGGSTANVQDTNVQLTRGNVVRTVALEDLVANPRQNILLRRGDVVTMITNPYTFTSMGAVGRTQEIGFSARGLSLSEAIGRMGGLQDRRSDARGVFVFRYTPLVELPAERQDKWIRQGYGSEAEIPTVYRVNMADAHSLFSMQRFPVKNKDVLYVSNAPLAEVQKFLSFVFSPVTSGANSINNLTNEGHHHHHH”, for which the “soluble on expression in E. coli” value is reported as “not soluble”.

Turning to “MSLSTIRIGGAAVNQTPIDWENNVKNILDAIEEAKNANVEILCLPELCITGYGCEDLFLTDWVAETAIEYCFEIAASCTDITVSLGLPMRIAGITYNCVCLVENGIVKGFSAKQFLANEGVHYETRWFTAWPRNHTTTFLYNDVKYPFGDVLYNVKDARIGFEICEDAWRTDRVGIRHYEKGATLVLNPSASHFAFGKSAIRYDLVIGGSERFDCTYVYANLLGNEAGRMIYDGEVLIAHKGKLIQRNDRLSFKNVNLIYADIATDSAETPETVLTQDDLEKEFEFWEATSLGLFDYMRKSRSKGFVLSLSGGADSSACAIMVAEMIRKGLKELGLTAFLQKSNMETLFDLPALQHLPFEEQAKKITAVFLTTAYQSTRNSGDETYTSAKTLAESIGATFYNWSVDEEIEQYKATIENVIERPLTWEKDDITLQNIQARGRAPIIWMLTNVKQALLITTSNRSEGDVGYATMDGDTAGGIAPIAGVDKDFIRSWLRWAEKNRNQHGLHIVNKLAPTAELRPSEYTQTDERDLMPYDVLARIERKAIKERLSPVQVYTALLTEGPYTKNEFKYWVKKFFRLWSINQWKRERLAPSFHMDDFNIDPRSWYRFPILSSGFAKELNDLDQEGHHHHHH”, the “soluble on expression in E. coli” value is on record as “soluble”.

Take “MRPNLRFYVQTINDIVKTTEDIGEVMNPYYEEVRQAIDKNKVNDLTAERIAEIQAKFKEGTEKYELMLKKVGTLKPTPQVLGIHKKFQHAYTEYVAGCNEMILATDPETGIDADLFNASEEKQDQATDELTFAITRMSNILLKK”: the “soluble on expression in E. coli” value is recorded as “not soluble”.

Source of the values: the DeepSol protein solubility set.
